# Measured values reported in the supplement of paper PMC10724198.
# ± gives the standard deviation of the averaged measurements.
# Test system: Saccharomyces cerevisiae
# Test: protein stability index of tFT-peptide fusion (C-terminal peptide) (PSI (0-1 scale)); higher = more stable (slower turnover)
# Conditions: genetic background: wild type; temperature: 30 C
# Method: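 Multiplexed protein stability (MPS) profiling in S. cerevisiae. Random 12-aa peptides (tFT-X12 library) are fused to the C-terminus of a sfGFP-mCherry tandem fluorescent timer, after mCherry and a GGGS linker. Cells are FACS-sorted into 8 mCherry/sfGFP bins and deep-sequenced. The protein stability index (PSI) is the read-weighted bin average, scaled from 0 (unstable) to 1 (stable). Only peptides with >10 reads are reported; cells were grown at 30 °C in SC-His with glucose.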
# 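Further: PSI is a weighted mean of sequencing reads over stability bins, variants kept only with over 10 reads, mCherry proximal and sfGFP distal, peptide attached via GGGS linker.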
row,Sequence,protein stability index
1,ELEIRSLCPDVV,0.694 ± 0.024
2,ELVYVFLGNLPP,0.632 ± 0.034
3,ELWRAGEVRGGK,0.713 ± 0.035
4,EMGGLKACRGVG,0.56565 ± 0.00029
5,EMNKGKREKKGE,0.684 ± 0.084
6,EMYEKLKSYIVK,0.685 ± 0.013
7,ENDKPITRKETQ,0.605 ± 0.07
8,ENPVVRSGAVGS,0.698 ± 0.031
9,EPAWVNDQKERS,0.832 ± 0.029
10,EPGFWGGRGGRA,0.661 ± 0.01
11,EPLGSGLQCTAG,0.731 ± 0.005
12,EPRPTPLSTPRH,0.671 ± 0.094
13,EQRLQRATELGR,0.52028 ± 0.00016
14,EQRQVQVTWRQD,0.66 ± 0.055
15,EQTIGDRVPGKG,0.658 ± 0.051
16,EQVRVDETTGRR,0.722 ± 0.025
17,ERARSRGGGGCV,0.632 ± 0.046
18,ERCQGGSGVLIR,0.638 ± 0.1
19,ERDDRSFEWPRQ,0.69 ± 0.025
20,ERGKGSRVGGST,0.643 ± 0.1
21,ERGREVVSRGVQ,0.724 ± 0.014
22,ERKESKSRKVER,0.726 ± 0.081
23,ERKKIKDKIKKN,0.702 ± 0.051
24,ERKQKKKTKEKY,0.682 ± 0.026
25,ERKQRKREQRDR,0.6609 ± 0.0038
26,ERLACRFRTVVM,0.595 ± 0.053

row,Sequence,protein stability index
1,ERNDLGNRLSMD,0.654 ± 0.02
2,ERRGAAGAGSTR,0.744 ± 0.045
3,ERSRRVSNIMVL,0.48 ± 0.095
4,ERSVTVKIRDLL,0.6767 ± 0.0036
5,ERTSSSWPPPAV,0.72 ± 0.09
6,ERVEETGREQPT,0.754 ± 0.037
7,ESPTWVVLEGLG,0.6996 ± 0.0014
8,ESRGLVRRLGTG,0.693 ± 0.058
9,ESRGVRAGTWQG,0.694 ± 0.05
10,ESSTGYSPPLPV,0.666 ± 0.047
11,ETNKEDKGKKSI,0.6577 ± 0.0051
12,EVCAGNFVCSLG,0.708 ± 0.015
13,EVDRGSNWEGRL,0.66 ± 0.011
14,EVLTSRWCGLIS,0.744 ± 0.074
15,EVMAIISTRILG,0.647 ± 0.07
16,EVNGNYNIVGKA,0.652 ± 0.07
17,EVRDLSQFMKRY,0.727 ± 0.0092
18,EVRGKSVTIFVR,0.57 ± 0.025
19,EVTAQLCADKEP,0.564 ± 0.12
20,EVTDSVKTEPAT,0.6463 ± 0.0043
21,EVTEIAQFRDKR,0.7 ± 0.017
22,EVWGGVCWRAGG,0.735 ± 0.12
23,EVYPAEADVFGG,0.69 ± 0.052
24,EWEKPEDLHKPA,0.659 ± 0.058
25,EWGGGGGGGKCV,0.733 ± 0.054
26,EWQWGWGGVRRD,0.765 ± 0.032

row,Sequence,protein stability index
1,EWTTTVLGGQLR,0.696 ± 0.027
2,EWVPDIANLRRR,0.752 ± 0.16
3,EYFKTKQKKKKE,0.753 ± 0.12
4,EYGECWCWSSWR,0.732 ± 0.059
5,FACAGPAAFHSL,0.597 ± 0.014
6,FADTALLCELLR,0.687 ± 0.033
7,FAKELSLRSFSA,0.814 ± 0.04
8,FALCLPPPSPPA,0.761 ± 0.026
9,FALFQSFCFFCF,0.564 ± 0.061
10,FALTHSRSPSTS,0.799 ± 0.1
11,FASSSDSLWRGI,0.679 ± 0.014
12,FATPDGFVSLWF,0.774 ± 0.14
13,FAVLSFRFPGGL,0.693 ± 0.099
14,FAVSTVCWCCGL,0.647 ± 0.041
15,FCGGYHATVKMR,0.68 ± 0.015
16,FCNAVLSCFSIF,0.597 ± 0.0068
17,FCVVVAIVPLWG,0.512 ± 0.013
18,FCWVVFHSGISS,0.713 ± 0.085
19,FCYWCLGWGVGL,0.692 ± 0.059
20,FELYGVGLGTCA,0.633 ± 0.17
21,FEVAPAPLDQVV,0.653 ± 0.028
22,FFCTHFQLLFSP,0.641 ± 0.019
23,FFDKLEIRALVV,0.6302 ± 0.00098
24,FFERRLGYYSRM,0.85 ± 0.09
25,FFFLCLPSSFAF,0.614 ± 0.0098
26,FFGFLLFCSRFS,0.516 ± 0.016

row,Sequence,protein stability index
1,FFMEKPSSGCTS,0.685 ± 0.017
2,FFPLSSLIAFLP,0.6815 ± 0.0025
3,FFPPLPATSVPA,0.561 ± 0.1
4,FFSFILGGFLLG,0.6682 ± 0.00082
5,FFSSHPCYFSTF,0.69 ± 0.072
6,FFSVLSAISFFF,0.628 ± 0.06
7,FFVGGVTDLFVS,0.724 ± 0.0092
8,FFWTTPRFPFPS,0.725 ± 0.021
9,FFYFSLSLSHFC,0.496 ± 0.025
10,FGAATLFLLAPC,0.55 ± 0.02
11,FGASYLGSLLDV,0.699 ± 0.057
12,FGCGLYPLRVLH,0.604 ± 0.034
13,FGCISAGLGWMY,0.721 ± 0.048
14,FGCLGVLGAGRC,0.713 ± 0.034
15,FGGGGGGVGLAV,0.65 ± 0.033
16,FGGGSHRRGRCR,0.68 ± 0.018
17,FGGSTPVLKPTQ,0.719 ± 0.019
18,FGLWGFGRPRGW,0.721 ± 0.031
19,FGQERLHMSILF,0.692 ± 0.029
20,FGSLRLQITVNP,0.557 ± 0.098
21,FGTSLLPLPPPD,0.601 ± 0.025
22,FGVQTFIGPTIV,0.677 ± 0.012
23,FGVSIGELAGRH,0.686 ± 0.035
24,FGVTGLGVGLVW,0.639 ± 0.0066
25,FHFLCLVGSFRG,0.528 ± 0.037
26,FIGFGCGLVWSV,0.613 ± 0.019

row,Sequence,protein stability index
1,FILERSLLSLQG,0.678 ± 0.18
2,FILLFGCFGFFC,0.557 ± 0.051
3,FIRDKQTSFDIR,0.68036 ± 0.00024
4,FKLVGRHLHSFD,0.652 ± 0.06
5,FKRLSTDCSVNS,0.687 ± 0.061
6,FKSVPTLPHPSP,0.6701 ± 0.0045
7,FLASFSSFMFYL,0.591 ± 0.016
8,FLDPFLTRRCVF,0.694 ± 0.055
9,FLFADVSSPSSI,0.725 ± 0.038
10,FLGGWVCGWPQF,0.772 ± 0.15
11,FLISSGPSVSVL,0.623 ± 0.026
12,FLLLSPARLVLL,0.5529 ± 0.0021
13,FLLYSSSAIPEH,0.759 ± 0.065
14,FLRISPPPPSPP,0.676 ± 0.077
15,FLRLFLQQVEFL,0.7157 ± 0.0026
16,FLSFIADVTGKR,0.707 ± 0.019
17,FLSFLFTGFIQL,0.595 ± 0.017
18,FLSGPCLLSFAS,0.679 ± 0.12
19,FLVFRFPFGFSC,0.566 ± 0.025
20,FLVNVIRSCKGE,0.685 ± 0.059
21,FLWSSLYYARLD,0.75 ± 0.032
22,FLYDPVMLGLAC,0.469 ± 0.053
23,FMLGYIRPKWGG,0.714 ± 0.12
24,FMRASPSACTCL,0.668 ± 0.094
25,FMSMSYDEWAYL,0.721 ± 0.064
26,FMYRDVPFLRAP,0.697 ± 0.03

row,Sequence,protein stability index
1,FNHYPSPPQRFY,0.685 ± 0.072
2,FNIIHKKNTKEI,0.778 ± 0.03
3,FNPRIGGDCRSA,0.678 ± 0.031
4,FNRTRRLPLDSL,0.7018 ± 0.0053
5,FPAYPLPPPAPN,0.697 ± 0.067
6,FPFDMTSTEMSL,0.639 ± 0.096
7,FPFGICMISCDG,0.628 ± 0.02
8,FPGSLVPVASVP,0.71 ± 0.089
9,FPHPSPPPFPPP,0.698 ± 0.026
10,FPLPPPPPAVFL,0.673 ± 0.086
11,FPLPPPPSLSTP,0.656 ± 0.036
12,FPLPSPPRPFSF,0.761 ± 0.041
13,FPPCSPPPPAPL,0.625 ± 0.05
14,FPPLLFPPTPTR,0.842 ± 0.027
15,FPPLTRPSPIYP,0.726 ± 0.03
16,FPPPCVLPLPRT,0.723 ± 0.02
17,FPPPPPHTPSSA,0.694 ± 0.057
18,FPPTALESMPSS,0.737 ± 0.042
19,FPRLPSRPLSSL,0.6898 ± 0.0033
20,FPSFSLIFFSLI,0.489 ± 0.074
21,FPSLLFSSPSAF,0.7 ± 0.038
22,FPSPLLPYPLLP,0.747 ± 0.052
23,FPVGVRLNQNET,0.718 ± 0.017
24,FPVSPFPPPPSS,0.742 ± 0.16
25,FQAYPPFSLVPA,0.5533 ± 0.0029
